Experimental findings from article doi:10.1101/2025.09.13.676064, “Structural Hijacking of FcRn by Human Astrovirus Spikes Reveals Conserved Epitopes for Broad-Spectrum Antivirals” (bioRxiv, 2025) are described below.

Test [1] addresses T1, untagged recombinant human FcRn extracellular domain (neonatal Fc receptor; α-chain with β2-microglobulin) (human, UniProt P55899 24-297; P61769 21-119).
T1 construct: Human FcRn α-chain (heavy chain), residues 24-297 of UniProt P55899; Human β2-microglobulin, residues 21-119 of UniProt P61769; Untagged; both chains cloned into separate phCMV3 vectors; also called human FcRn ectodomain; FcRn heterodimer; source: Expi293F cells, co-transfected (1:1), purified from the supernatant (human IgG column, SEC Superdex 200 Increase)
Description: BLI; biotinylated spike immobilised on streptavidin (SA) biosensors; FcRn in solution, 2-fold dilutions 1,000 to 31.25 nM; 23°C; pH 7.5; 1:1 binding model; Octet Red. Particulars: both partners purified.

Test [2] concerns the target T1, untagged recombinant human FcRn …. Description: BLI; biotinylated spike immobilised on streptavidin (SA) biosensors; FcRn in solution, 2-fold dilutions 1,000 to 31.25 nM; 23°C; pH 6.0; 1:1 binding model; Octet Red. As to conditions: both partners purified. (BLI is a label-free optical method that tracks binding on a fibre tip over time.)

T1 sequence (P55899 24-297, chain 1 of 2): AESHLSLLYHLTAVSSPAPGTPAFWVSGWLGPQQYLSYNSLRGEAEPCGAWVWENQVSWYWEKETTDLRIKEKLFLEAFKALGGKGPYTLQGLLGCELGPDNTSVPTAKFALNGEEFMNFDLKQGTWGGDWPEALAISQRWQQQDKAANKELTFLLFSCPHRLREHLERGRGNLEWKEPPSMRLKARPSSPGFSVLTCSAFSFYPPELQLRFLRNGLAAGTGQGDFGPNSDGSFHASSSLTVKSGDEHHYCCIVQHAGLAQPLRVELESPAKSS
T1 sequence (P61769 21-119, chain 2 of 2): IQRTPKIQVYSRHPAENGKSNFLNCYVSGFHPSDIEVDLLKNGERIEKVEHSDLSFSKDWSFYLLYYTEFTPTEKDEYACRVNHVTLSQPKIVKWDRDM

B1: HAstV-8 capsid spike domain (residues 424-645) (domain or fragment)
chain: SIPEPGEQFRVLLTVGPPMAPNTANSQNWVNKTIVPPENQYTVKIGIDLEHYTTMQGFTPVESVSWYTADFQPSDEPSPIPGLYARVNNTKKADVYGVQQFKSSHTNNRHQITSVFLVRVTTSFQVINYTSYFIRGAESGSNVSNLKIRDQTYHTPLQFTQGKWYLLTSTVMHDGPTSSGWVWMNQELTNNIAYRVDPGMMYLITPPPAASQLYFELHTVLP
modifications: biotin (biotinylated spike; BirA co-transfected)
notes: Human astrovirus serotype 8 capsid protein (ORF2-encoded precursor), spike domain, residues 424-645 of Q9IFX1; Codon-optimised, in pcDNA3.1; also called HAstV8 spike; serotype 8 spike; source: Expi293F cells, co-transfected with BirA plasmid, purified from the supernatant (Ni-IMAC, SEC Superdex 200); not shown: AviTag, C-terminal, kept
By Kd is commonly meant the concentration at which binding is half-saturated. Consider B1, for which the Kd in test [1] came out at 458 nM; in test [2] it was 60 nM.

B2: HAstV-2 capsid spike domain (residues 428-647) (domain or fragment)
chain: SGELRVLLTVGSIMSPNSADRQVWLNKTLTAPGTNSNDNLVKIAHDLGHYLIMQGFMHIKTVEWYTPDFQPSRDPTPIAGMSVMVNITKKADVYFMKQFKNSYTNNRHQITSIFLIKPLADFKVQCYMSYFKRESHDNDGVANLTVRSMTSPETIRFQVGEWYLLTSTTLKENNLPEGWVWDRVELKSDTPYYADQALTYFITPPPVDSQILFEGNTTLP
modifications: biotin (biotinylated spike; BirA co-transfected)
notes: Human astrovirus serotype 2 capsid protein (ORF2-encoded precursor), spike domain, residues 428-647 of Q82446.1; Codon-optimised, in pcDNA3.1; also called HAstV2 spike; serotype 2 spike; source: Expi293F cells, co-transfected with BirA plasmid, purified from the supernatant (Ni-IMAC, SEC Superdex 200); not shown: AviTag, C-terminal, kept
Regarding B2, the Kd in test [1] was 898 nM; in test [2], 42 nM.
